Consider five molecules from article PMC11087270, “CryoEM structures reveal how the bacterial flagellum rotates and switches direction” (Nature Microbiology, 2024).

Sequences and labels used below:
B1: FliF (S. enterica serovar typhimurium), subunit of the MS-ring whose C-terminus (FliFC) lies in the C-ring (natural protein)
chain: MSATASTATQPKPLEWLNRLRANPRIPLIVAGSAAVAIVVAMVLWAKTPDYRTLFSNLSDQDGGAIVAQLTQMNIPYRFANGSGAIEVPADKVHELRLRLAQQGLPKGGAVGFELLDQEKFGISQFSEQVNYQRALEGELARTIETLGPVKSARVHLAMPKPSLFVREQKSPSASVTVTLEPGRALDEGQISAVVHLVSSAVAGLPPGNVTLVDQSGHLLTQSNTSGRDLNDAQLKFANDVESRIQRRIEAILSPIVGNGNVHAQVTAQLDFANKEQTEEHYSPNGDASKATLRSRQLNISEQVGAGYPGGVPGALSNQPAPPNEAPIATPPTNQQNAQNTPQTSTSTNSNSAGPRSTQRNETSNYEVDRTIRHTKMNVGDIERLSVAVVVNYKTLADGKPLPLTADQMKQIEDLTREAMGFSDKRGDTLNVVNSPFSAVDNTGGELPFWQQQSFIDQLLAAGRWLLVLVVAWILWRKAVRPQLTRRVEEAKAAQEQAQVRQETEEAVEVRLSKDEQLQQRRANQRLGAEVMSQRIREMSDNDPRVVALVIRQWMSNDHE
notes: FliF, S. enterica serovar typhimurium, expressed from the fliF gene on plasmid pKLR3; residues 50-428 modelled in the MS-ring and 514-560 (FliFC) in the C-ring; no tag is told; also called MS-ring subunit; source: E. coli BL21-Gold, coexpressed from plasmid pKLR3; MSC-ring particles partially purified by differential membrane extraction
B4: FliM (S. enterica serovar typhimurium), C-ring switch subunit (natural protein, UniProt P26418 1-334, looked up)
chain: MGDSILSQAEIDALLNGDSDTKDEPTPGIASDSDIRPYDPNTQRRVVRERLQALEIINERFARQFRMGLFNLLRRSPDITVGAIRIQPYHEFARNLPVPTNLNLIHLKPLRGTGLVVFSPSLVFIAVDNLFGGDGRFPTKVEGREFTHTEQRVINRMLKLALEGYSDAWKAINPLEVEYVRSEMQVKFTNITTSPNDIVVNTPFHVEIGNLTGEFNICLPFSMIEPLRELLVNPPLENSRHEDQNWRDNLVRQVQHSELELVANFADIPLRLSQILKLKPGDVLPIEKPDRIIAHVDGVPVLTSQYGTVNGQYALRVEHLINPILNSLNEEQPK
notes: FliM, S. enterica serovar typhimurium, expressed from the fliM gene on plasmid pKLR3; FliML1 31-50, FliMmid 51-230, FliML2 231-256 and FliMC 257-330 described in the C-ring; no tag is told; also called FliML1; FliMmid; source: E. coli BL21-Gold, coexpressed from plasmid pKLR3; MSC-ring particles partially purified by differential membrane extraction

Data set [1] deals with the molecule itself. As to the kind of experiment: cryo-EM structure; wild-type MSC-ring particles (CCW pose); MS-ring or C-ring removed by particle subtraction; C-ring 34-mer at 4.0 Å (33-, 35-, 36-mer classes too), MS-ring 33-mer at 3.4 Å.
Data set [2] concerns the target B1. The description is as above. The settings on record: both partners purified.
Data set [3] deals with the molecule itself. Nature of the data set: cryo-EM structure; MSC-ring particles with FliG ΔPAA (CW pose); C34 symmetry applied, symmetry expansion and local refinement of three staves; 4.6 Å.
In data set [4] the target is B4. Nature of the data set: cryo-EM structure; wild-type MSC-ring particles (CCW pose); MS-ring or C-ring removed by particle subtraction; C-ring 34-mer at 4.0 Å (33-, 35-, 36-mer classes too), MS-ring 33-mer at 3.4 Å. The settings on record: both partners purified.
The target of data set [5] is B1. As to the kind of experiment: cryo-EM structure; MSC-ring particles with FliG ΔPAA (CW pose); C34 symmetry applied, symmetry expansion and local refinement of three staves; 4.6 Å. The following applies: both partners purified.

For orientation: stoichiometry N means the number of molecules, sites or subunits per partner or assembly.

“And” between values parts separate entries of the source, which are not always exact repeats. Identical values can stand only once.

On to B1, for which the “stoichiometry N” value in data set [1] is 33.

B2: FliG (S. enterica serovar typhimurium), wild type, C-ring switch subunit (natural protein, UniProt P0A1J9 1-331, looked up)
chain: MSNLSGTDKSVILLMTIGEDRAAEVFKHLSTREVQALSTAMANVRQISNKQLTDVLSEFEQEAEQFAALNINANEYLRSVLVKALGEERASSLLEDILETRDTTSGIETLNFMEPQSAADLIRDEHPQIIATILVHLKRSQAADILALFDERLRHDVMLRIATFGGVQPAALAELTEVLNGLLDGQNLKRSKMGGVRTAAEIINLMKTQQEEAVITAVREFDGELAQKIIDEMFLFENLVDVDDRSIQRLLQEVDSESLLIALKGAEPPLREKFLRNMSQRAADILRDDLANRGPVRLSQVENEQKAILLIVRRLAETGEMVIGSGEDTYV
notes: FliG, S. enterica serovar typhimurium, expressed from the fliG gene on plasmid pKLR3; residues 1-331 modelled in the C-ring; no tag is told; also called FliGD1; FliGD2; source: E. coli BL21-Gold, coexpressed from plasmid pKLR3; MSC-ring particles partially purified by differential membrane extraction
In the case of B2, the binding result in data set [2] is recorded as “binds”. The “stoichiometry N” value in data set [1] was 34 and 33 and 35 and 36.

B3: FliN (S. enterica serovar typhimurium), C-ring switch subunit (natural protein, UniProt P26419 1-137, looked up)
chain: MSDMNNPSDENTGALDDLWADALNEQKATTTKSAADAVFQQLGGGDVSGAMQDIDLIMDIPVKLTVELGRTRMTIKELLRLTQGSVVALDGLAGEPLDILINGYLIAQGEVVVVADKYGVRITDIITPSERMRRLSR
notes: FliN, S. enterica serovar typhimurium, expressed from the fliN gene on plasmid pKLR3; residues 45/59/63-137 of the three non-equivalent copies modelled in the C-ring; no tag is told; also called FliNC; FliN1; source: E. coli BL21-Gold, coexpressed from plasmid pKLR3; MSC-ring particles partially purified by differential membrane extraction
Take B3: the binding result in data set [3] is given as “binds”. Besides, in data set [4], the “stoichiometry N” value came to 3 FliN per FliM.

Turning to B4, the “stoichiometry N” value in data set [1] was 34.

B5: FliG ΔPAA (S. enterica serovar typhimurium), extreme CW-biased mutant (natural protein)
chain: MSNLSGTDKSVILLMTIGEDRAAEVFKHLSTREVQALSTAMANVRQISNKQLTDVLSEFEQEAEQFAALNINANEYLRSVLVKALGEERASSLLEDILETRDTTSGIETLNFMEPQSAADLIRDEHPQIIATILVHLKRSQAADILALFDERLRHDVMLRIATFGGVQLAELTEVLNGLLDGQNLKRSKMGGVRTAAEIINLMKTQQEEAVITAVREFDGELAQKIIDEMFLFENLVDVDDRSIQRLLQEVDSESLLIALKGAEPPLREKFLRNMSQRAADILRDDLANRGPVRLSQVENEQKAILLIVRRLAETGEMVIGSGEDTYV
notes: FliG, S. enterica serovar typhimurium, with the Pro-Ala-Ala (PAA) motif FliG 169-171 deleted; also called switch_(ΔPAA); CW-locked; source: switch particles containing the FliG ΔPAA mutation; expression and purification as told for the FliFGMN subunits (E. coli BL21-Gold, differential membrane extraction)
Turning to B5, the binding result in data set [5] and in data set [3] was “binds” throughout.
